Test results taken from patent publication EP4786494A1 (Nanjing Leads Biolabs Co., Ltd., dated 2026).
Numbering of substitutions follows the chain as printed.

B1: bemarituzumab (antibody, human IgG1, kappa, V domains shown)
VH: QVQLVQSGAEVKKPGSSVKVSCKASGYIFTTYNVHWVRQAPGQGLEWIGSIYPDNGDTSYNQNFKGRATITADKSTSTAYMELSSLRSEDTAVYYCARGDFAYWGQGTLVTVSS
VL: DIQMTQSPSSLSASVGDRVTITCKASQGVSNDVAWYQQKPGKAPKLLIYSASYRYTGVPSRFSGSGSGTDFTFTISSLQPEDIATYYCQQHSTTPYTFGQGTKLEIKR
B2: mouse antibody A1B2 (antibody, V domains shown)
VH: EVQLQQSGAELVRPGASVKLSCTASGFNIKDYYMHWVKQRPEQGLEWIGRIDPEDGDTEYAPKFQGKATMTADTSSNTAYLQLSSLTSEDTAVYYCTTYYYVSTYEDYWGQGTTLTVSS
VL: QIVLTQSPAIMSASLGEEITLTCSASSSVSHMHWYQQKSGTSPKLLIYSTSNLASGVPSRFSGSGSGTFYSLTISSVEAEDAADYYCHHWSSWTFGGGTKLEIK
notes: Antibody as produced by the hybridoma
B3: antibody A1B2 (murine chimeric anti-FGFR2 antibody) (antibody, human IgG1, kappa, V domains shown)
VH: B2 VH
VL: QIVLTQSPAIMSASLGEEITLTCSASSSVSHMHWYQQKSGTSPKLLIYSTSNLASGVPSRFSGSGSGTFYSLTISSVEAEDAADYYCHHWSSWTFGGGTKLEIKR
B4: mouse antibody F3F8 (antibody, V domains shown)
VH: QVTLKESGPGILQSSQTLSLTCSFSGFSLSTSGMGVSWIRQPSGKGLEWLAHIYWDNDKRYNPSLKSRLTISKDTSRNQVFLKITSVDTADTATYYCTRSDSSGSFDYWGQGTTLTVSS
VL: DIQMTQTTSSLSASLGDRVTISCRASQDISNYLNWYQQKPDGTVKFLIYYTSTLHSGVPSRFSGSGSGTDYSLTISNLEQEDIATYFCQQGNTLPWTFGGGTKLEIK
notes: as for B2
B5: antibody F3F8 (murine chimeric anti-FGFR2 antibody) (antibody, human IgG1, kappa, V domains shown)
VH: B4 VH
VL: DIQMTQTTSSLSASLGDRVTISCRASQDISNYLNWYQQKPDGTVKFLIYYTSTLHSGVPSRFSGSGSGTDYSLTISNLEQEDIATYFCQQGNTLPWTFGGGTKLEIKR
B6: mouse antibody D12D8 (antibody, V domains shown)
VH: QVQLQQSGAELARPGASVKLSCKASGYTFTNYGISWVKQRTGQGLEWIGEIYPRSGNTYYNEKFKGKATLTADKSSSTAYMELRSLTSEDSAVYFCARGDYSNSDYWGQGTTLTVSS
VL: B4 VL with S30T, N31D, Y32H, F46L, T53R, W96R
notes: as for B2
B7: antibody E3A1 (murine chimeric anti-FGFR2 antibody) (antibody, human IgG1, kappa, V domains shown)
VH: B4 VH with S30T, N57D, T98A, R99G, S100C
VL: B5 VL with S22T, F46L, T51R, T53R, T69P, D70E
B8: mouse antibody E3A1 (antibody, V domains shown)
VH: B4 VH with S30T, N57D, T98A, R99G, S100C
VL: B4 VL with S22T, F46L, T51R, T53R, T69P, D70E
notes: as for B2
B9: mouse antibody F6B6 (antibody, V domains shown)
VH: QVQLKQSGPGLVQPSQSLSITCTVSGFSLTNYGVHWVRQSPGKGLEWLGVIWSDGSTDYDAAFISRLSISTDNSKSQVFFKMNSLQAADTAIYYCARKGDYDYDNYAMDYWGQGTSVTVSS
VL: DVVITQSPATLSVTPGDSVSLSCRASQSISNNLHWYQQKSHESPRLLIKYASQSISGIPSRFSGSGSGTDFTLSINSVETEDFGMYFCQQSNSWPLTFGAGTKLELK
notes: as for B2
B10: antibody F6B6 (murine chimeric anti-FGFR2 antibody) (antibody, human IgG1, kappa, V domains shown)
VH: B9 VH
VL: DVVITQSPATLSVTPGDSVSLSCRASQSISNNLHWYQQKSHESPRLLIKYASQSISGIPSRFSGSGSGTDFTLSINSVETEDFGMYFCQQSNSWPLTFGAGTKLELKR
B11: antibody D12D8 (murine chimeric anti-FGFR2 antibody) (antibody, human IgG1, kappa, V domains shown)
VH: B6 VH
VL: B5 VL with S30T, N31D, Y32H, F46L, T53R, W96R
B12: mouse antibody A5H12 (antibody, V domains shown)
VH: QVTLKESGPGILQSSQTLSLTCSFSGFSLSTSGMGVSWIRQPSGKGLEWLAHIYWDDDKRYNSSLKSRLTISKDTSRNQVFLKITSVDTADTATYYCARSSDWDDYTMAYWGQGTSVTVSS
VL: DIVLTQSPASLAVSLGQRATISCRASESIDDFGISFMHWYQQKPGQPPKLLIYRASNLESGIPARFSGSGSRADFTLTINPVETDDVATYYCQQSNKDPPTFGAGTNLELK
notes: as for B2
B13: antibody A5H12 (murine chimeric anti-FGFR2 antibody) (antibody, human IgG1, kappa, V domains shown)
VH: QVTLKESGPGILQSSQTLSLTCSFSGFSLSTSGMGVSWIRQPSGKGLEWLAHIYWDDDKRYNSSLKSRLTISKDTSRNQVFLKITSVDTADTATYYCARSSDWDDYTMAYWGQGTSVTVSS
VL: DIVLTQSPASLAVSLGQRATISCRASESIDDFGISFMHWYQQKPGQPPKLLIYRASNLESGIPARFSGSGSRADFTLTINPVETDDVATYYCQQSNKDPPTFGAGTNLELKR
B14: mouse antibody G11B8 (antibody, V domains shown)
VH: EVQLQQSGPELVKPGASVKIPCKASGYTFTDYNMDWVKQSHGKSLEWIGDINPKNGETFYNQKFKGKATLTVDRSSNTAYMELRSLTSEDTAVYFCAKRDLNWYFDYWGQGTTLTVSS
VL: DIQMTQSSSYLSVSLGGRVTITCKASDHINNWLAWYQQKPGNAPRLLISGATSLETGVPSRFSGSGSGKDYTLSITSLQTEDVATYYCQQYWSTPWTFGGGTKLEIK
notes: as for B2
B15: antibody G11B8 (murine chimeric anti-FGFR2 antibody) (antibody, human IgG1, kappa, V domains shown)
VH: B14 VH
VL: DIQMTQSSSYLSVSLGGRVTITCKASDHINNWLAWYQQKPGNAPRLLISGATSLETGVPSRFSGSGSGKDYTLSITSLQTEDVATYYCQQYWSTPWTFGGGTKLEIKR
B16: antibody H3F7-a (murine chimeric anti-FGFR2 antibody) (antibody, human IgG1, kappa, V domains shown)
VH: B14 VH with N77S
VL: B15 VL
B17: mouse antibody H3F7-a (antibody, V domains shown)
VH: B14 VH with N77S
VL: B14 VL
notes: as for B2

Experiments:
[1] = biological target: T1, human FGFR1 protein (ACRO Biosystems, Cat. No. FG1-H5223) (human, UniProt P11362-14 22-285); test: ELISA, FGFR1 coated
T1 construct: Bought recombinant protein; construct not described
T1 sequence (looked up): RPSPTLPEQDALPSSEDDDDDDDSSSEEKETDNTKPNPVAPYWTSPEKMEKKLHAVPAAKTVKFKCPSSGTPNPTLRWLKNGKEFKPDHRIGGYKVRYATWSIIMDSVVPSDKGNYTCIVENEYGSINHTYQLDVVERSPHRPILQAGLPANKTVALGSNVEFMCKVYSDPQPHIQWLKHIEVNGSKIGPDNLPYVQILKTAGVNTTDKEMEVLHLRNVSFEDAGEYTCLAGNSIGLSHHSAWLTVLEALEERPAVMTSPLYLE

[2] = biological target: T2, human FGFR3 protein (Sino Biological, Cat. No. 16486-H08H) (human, UniProt P22607-2 23-377); test: ELISA, FGFR3 coated
T2 construct: Bought recombinant protein; construct not described
T2 sequence (looked up): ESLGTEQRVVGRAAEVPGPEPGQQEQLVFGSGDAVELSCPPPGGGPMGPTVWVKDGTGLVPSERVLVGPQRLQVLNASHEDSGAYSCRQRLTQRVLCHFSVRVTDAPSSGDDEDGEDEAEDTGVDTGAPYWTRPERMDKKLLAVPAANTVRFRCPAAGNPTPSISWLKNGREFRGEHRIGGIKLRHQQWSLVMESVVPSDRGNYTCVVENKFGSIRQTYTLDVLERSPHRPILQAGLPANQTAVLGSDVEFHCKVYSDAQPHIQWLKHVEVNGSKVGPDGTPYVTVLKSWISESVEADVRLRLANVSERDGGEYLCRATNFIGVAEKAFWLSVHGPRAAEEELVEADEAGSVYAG

[3] = biological target: T3, human FGFR4 protein (Sino Biological, Cat. No. 10538-H08H) (human, UniProt P22455 22-369); test: ELISA, FGFR4 coated
T3 construct: Bought recombinant protein; construct not described

[4] = biological target: T4, human FGFR2-his protein (huFGFR2-his) (human); test: ELISA screen of hybridoma subclones on human FGFR2-his
T4 construct: Extracellular region of human FGFR2 (NP_001138385.1) with a 6xHis tag; also called human FGFR2 extracellular protein
T4 chain: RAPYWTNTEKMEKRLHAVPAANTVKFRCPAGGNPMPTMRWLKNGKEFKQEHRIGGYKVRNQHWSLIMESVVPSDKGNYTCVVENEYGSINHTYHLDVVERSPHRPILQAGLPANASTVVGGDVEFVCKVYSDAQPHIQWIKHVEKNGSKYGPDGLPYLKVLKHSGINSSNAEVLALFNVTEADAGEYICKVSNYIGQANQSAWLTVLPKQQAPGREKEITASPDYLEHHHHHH

| Binder | binding result [1] | binding result [2] | binding result [3] | binding result [4] |
| --- | --- | --- | --- | --- |
| B1 | no binding | no binding | no binding |  |
| B2 |  |  |  | binds |
| B3 | no binding | no binding | no binding |  |
| B4 |  |  |  | binds |
| B5 | no binding | no binding | no binding |  |
| B6 |  |  |  | binds |
| B7 | no binding |  | no binding |  |
| B8 |  |  |  | binds |
| B9 |  |  |  | binds |
| B10 | no binding | no binding | no binding |  |
| B11 | no binding | no binding | no binding |  |
| B12 |  |  |  | binds |
| B13 | no binding |  | no binding |  |
| B14 |  |  |  | binds |
| B15 | no binding | no binding | no binding |  |
| B16 | no binding | no binding | no binding |  |
| B17 |  |  |  | binds |
